Variants at the floor of the assay were thinned out.
B1: TPR 5TU (parent)
chain: GGAUCUUCUCGAUCUAACAAAAAAGACAAAUCUGCCACAAAGCUUGAGAGCAUCUUCGGAUGCAGAGGCGGCAGCCUUCGGUGGCGCGAUAGCGCCAACGUUCUCAACUAUGACACGCAAAACGCGUGCUCCGUUGAAUGGAGUUUAUCAUG

Variants of: B1
Test: polymerase ribozyme fitness, log enrichment relative to wild type (log ratio); higher = more active; in vitro selection for triplet polymerase activity
Procedure, shortened: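 Fitness is a logarithmic measure of how a genotype enriched relative to the wild type, with replicate averages weighted by inverse variance. The logarithm uses base 2, and enrichment came from Illumina sequencing of input and output libraries. Those libraries were PCR-built, transcribed mutants of each subunit of a heterodimeric triplet polymerase ribozyme, passed through one triplicate in vitro selection round that included frozen incubation at −7 °C, gel excision of extended constructs and streptavidin-bead capture. Genotypes were kept only if they had ≥10 input reads and ≥1 read per output.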

Point of comparison: A17C A21G A40U G86U A122U, “polymerase ribozyme fitness (log ratio)” value -1.48. Against it:
- A16G G80C G81A A97G U102C G136C C149U — lower, ≤ -4.2
- A17G A29C A107U U135G — lower, ≤ -4.2
- A17G C35U U53A G94A — higher, -1.28
- A17G A49U G71C C79A A106U — lower, ≤ -4.2
- A17G A39G U56A C85G A115G — lower, -3.92
- A17G C72U G88U U102C C105G — lower, ≤ -4.2
- A17C C36U A47G C54A C85A C118A U127G U134C U151A — lower, ≤ -4.2
- A16G U144G — higher, 0.162
- A17G C93G — lower, -2.89
- A17G C93A — lower, -2.46
- A17G C93U — higher, -0.578
- A17G C27A C35G C75A G86C A142G — lower, ≤ -4.2
- A17C G88A A91G U148A — lower, -4.03
- A17C U31C G50C C51A — higher, -0.997
- A17G A37C A91G C99A A107G U139G G143U U148C — lower, ≤ -4.2
- A17C A26U A49C — lower, ≤ -4.2
- A17C G59A A60C G81C C95U C116U — higher, 0.238
- A17G C35A A40C G67U C96A C129G — lower, ≤ -4.2
- A16G C69U C85U C131G A142U — lower, ≤ -4.2
- A17G G25C G50A G86A C93G — lower, ≤ -4.2
- A16U G124U — lower, -2.37
- A16U C54A G81A C85U C114U G136U G143U C149G — lower, ≤ -4.2
- A17C A24G A39U U56A C103G G136U — lower, ≤ -4.2
- A16G C54U — higher, -0.601
- A16U G58U — lower, -2.34
- A17G A19U C93U U102C G136A U148A — lower, ≤ -4.2
- A16U A19G U31A C38U G42C U44G G59U C96G — lower, ≤ -4.2
- A17G C57A A91G C95G A122U — lower, -4.04
- A17C A20C C108G — lower, ≤ -4.2
- A17C U55A G59A A60G C96A G143U — lower, -3.41
- A16U A17G G59C U77G G94U — lower, -3.85
- A17C G68C C85G C125U G143C — lower, ≤ -4.2
- A16G U82A U145G — within 0.2 log units, -1.4
- A17C A91U — lower, ≤ -4.2
- A17C A40G G50C C57U C108U G133C — lower, ≤ -4.2
- A16U C38A C75A C114U G143U — lower, ≤ -4.2
- A17G C51U U55G C79U G83U C95A C118G U145C — lower, ≤ -4.2
- A16G G126A G143A — lower, -3.34
- A16U A47G C51U C95A C114U — lower, -3.93
- A16U G86A A91U A106G C108U C129A — lower, ≤ -4.2
- A16U C85A — lower, -2.74
- A16U C85G — lower, -3.36
- A16U U56G G84A U102A G141U — lower, -3.81
- A17C U53G U55A A121G — lower, -1.71
- A16G C57A G86C G124U — lower, -3.24
- A17G A28U G71A A121G — lower, ≤ -4.2
- A16U C79G — lower, ≤ -4.2
- A16G G42C C54G G70A C87A C99U A113C G141U U151C — lower, ≤ -4.2
- A17C U55A U56A C85G A115G — lower, -3.1
- A17G G50U — higher, 0.372
- A17G G50C — lower, -2.81
- A16U C125A — lower, -2.06
- A17G C93G C95U — lower, ≤ -4.2
- A17G A23U U55G A66C — lower, ≤ -4.2
- A17G A21U C51U U53A C79U G94A A115G — lower, ≤ -4.2
- A17G A39C G68C C93G — lower, ≤ -4.2
- A17G G50U A66G G92C C95U G141A — lower, ≤ -4.2
- A16G C116A — higher, 0.283
- A16U U31A A64U C85U A91G C131A — lower, ≤ -4.2
- A17G C96G — within 0.2 log units, -1.29
- A17G C96U — higher, 0.456
- A16U U56A G62A U82G C85U A142G — lower, -4.16
- A17G A21G A29G G81A C93G G112U C118A U135A — lower, ≤ -4.2
- A17G G48U C87U A89U A119C — lower, -2.96
- A17G A22C U61A G84U C96U U109A U111A G141A — lower, ≤ -4.2
- A17G C72U A147C — higher, -0.924
- A16U C96U — lower, -2.07
- A16U C38U A60C G80U A97G — lower, ≤ -4.2
- A17G A40U U55A U56A C103A A119G U134A — lower, ≤ -4.2
- A17G A24U A26U G58A — lower, -4.02
- A16U U55G C87U — lower, -2.67
- A17G A20C A24C U44C A66U C103U U134G — lower, ≤ -4.2
- A16G C93G — lower, -4.02
- A17G C18G U31G G68A C87U G133U — lower, ≤ -4.2
- A16U G81A — lower, -1.95
- A16U A20C A91U G141U — lower, ≤ -4.2
- A17C U33C G42C C51A U53A U139G A142G — lower, ≤ -4.2
- A16U C43G G84C — lower, ≤ -4.2
- A16U G84U G86U C93G U144C — lower, -3.51
- A16G G50A A142C — lower, -3.93
- A17C C36U G68C G86A U139A — lower, ≤ -4.2
- A16U U44A G71C C96G A106U U127C G133U G141C U148C — lower, ≤ -4.2
